How the values were obtained:
Conditions in all cases: tags: N-terminal NLS PKKKRKV; TNT T7 expression from PCR product; label: DIG
ZF6xHunt [1] = biological target: ZF6xHunt (Artificial); experiment: EMSA; binds equally to (GCA)x6
ZF6xHunt [2] = biological target: ZF6xHunt (Artificial); experiment: EMSA; binds equally to (GCA-GCT)x3
ZF6xHunt [3] = biological target: ZF6xHunt (Artificial); experiment: EMSA; specific versus mutated sequences

Sequence of ZF6xHunt (Artificial) (chain, as listed by the source): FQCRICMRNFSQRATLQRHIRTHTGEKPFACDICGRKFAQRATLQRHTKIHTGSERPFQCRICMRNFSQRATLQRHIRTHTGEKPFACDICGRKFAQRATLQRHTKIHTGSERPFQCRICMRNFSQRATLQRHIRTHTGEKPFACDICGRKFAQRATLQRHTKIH

B1: (GCA-GCT)x3 alternate probe (dsDNA)
DNA 1: GCAGCTGCAGCTGCAGCT
DNA 2: AGCTGCAGCTGCAGCTGC
B1: binds (ZF6xHunt [1]).

B2: (GCA)x6 probe (dsDNA)
DNA 1: GCAGCAGCAGCAGCAGCA
DNA 2: TGCTGCTGCTGCTGCTGC
B2: binds (ZF6xHunt [2]).

B3: (CAG)x7 probe (dsDNA)
DNA 1: CAGCAGCAGCAGCAGCAGCAG
DNA 2: CTGCTGCTGCTGCTGCTGCTG
B3: binds (ZF6xHunt [3]).

Source: patent US20130336947, “PEPTIDES AND USES” (FUNDACIÓ PRIVADA CENTRE DE REGULACIÓ GENÓMICA, published 2013)
